From the supplement of paper PMC9732359
± gives the uncertainty stated by the source.

assay: protein stability index of a GFP-peptide fusion (yeast GPS) (PSI 1-4); higher = more stable; sorted into four equal gates, so the index is relative within each strain; details: pdr5∆
Procedure, shortened: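 The protein stability index of a peptide was calculated by multiplying its read frequency in each gate by that gate's number and adding the products. The peptides were tiled 17-residue stretches of yeast proteins, fused downstream of GFP on a Cherry-expressing plasmid and carried in yeast as a pooled library. Mid-log cultures in leucine-free medium were sorted into four equal gates by GFP/Cherry ratio, and each gate's plasmids were PCR-amplified and Illumina-sequenced.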

| Sequence | protein stability index |
| --- | --- |
| LERLTLVFCKHITSVPI [GRR1] | 1.42 ± 0.084 |

same assay, conditions: san1∆

| Sequence | protein stability index |
| --- | --- |
| KPFGSAKSDETKQASSF [YLR335W/NUP2] | 1.92 ± 0.15 |
| KPGSIDAISQVINIAKA [FAS1] | 2.61 ± 0.069 |
| KPIQNGEIIDISAFTQF [ARP9] | 2.64 ± 0.091 |
| KPLKKGSADIGASVISL [SIR4] | 3.05 ± 0.038 |
| KPPISDSVFSFGPKKEN [YLR335W/NUP2] | 2.75 ± 0.046 |
| KPSKPFNVDDVLKFTFT [MED8] | 3.03 ± 0.034 |
| KPVKVALIFIFFAYFIG [YJL039C/NUP192] | 1.38 ± 0.064 |
| KPYDINVVLVTNDRLNR [DIS3] | 2.96 ± 0.094 |
| KPYYFSNNHKLSESDKK [RPN12] | 1.33 ± 0.13 |
| KQFFQMTPLLVNCLELL [PCI8] | 1.26 ± 0.067 |
| KQGRIKNATEELLRLAN [CSN12] | 2.6 ± 0.14 |
| KQLQQPKSSPLKKNNYN [SIR4] | 3.1 ± 0.039 |
| KQQGVGLPTDAYVAIEQ [RPN8] | 2.89 ± 0.21 |
| KREKRVFLKHSLSIKLA [RPN6] | 2.75 ± 0.086 |
| KRIKPNTEITQKSSKEN [ECM29] | 2.98 ± 0.067 |
| KRKCGHTNQLRPKKKLK [RPL40A] | 2.942 ± 0.028 |
| KRKSAQEPELSLDQGDA [SMC4] | 3.09 ± 0.17 |
| KRLGPKRANNIRKFFGL [RPS6A] | 3.25 ± 0.038 |
| KRNGDEVYTLVDSQGLP [ARP7] | 2.98 ± 0.14 |
| KRPNNKTLEKLESTIAE [IRR1] | 3.01 ± 0.096 |
| KRPYESSRLDAELKLAG [RPS9A] | 2.81 ± 0.072 |
| KSAYANTEKDYKMVQEQ [SMC2] | 3.19 ± 0.04 |
| KSDDDDHTVDEIDHVEY [SRB8] | 2.98 ± 0.1 |
| KSDEAKWKPVLSHIVYF [RPN5] | 2.23 ± 0.058 |
| KSGKRKPNIILDEDDTN [RPC31] | 3.35 ± 0.067 |
| KSKERSSQFVRLASEPG [YMR129W/POM152] | 3.16 ± 0.1 |

| Sequence | protein stability index |
| --- | --- |
| KSKREEEAKSVLPAATK [ARP9] | 1.29 ± 0.11 |
| KSLALLGYNFDGSAIED [SNF5] | 2.28 ± 0.072 |
| KSLPLLITVMEKSPDPT [YCS4] | 1.92 ± 0.062 |
| KSNVIDSMLFVFGFRAN [SMC4] | 2.16 ± 0.078 |
| KSSELELQKLVHDLNKY [SMC2] | 3.36 ± 0.045 |
| KSSIEKDPSPEILVLYN [SIN4] | 2.91 ± 0.045 |
| KSVLGDGKKHSVFYTIL [RPO31] | 3.02 ± 0.08 |
| KTAMAELALLNHWRQNK [BRR2] | 1.26 ± 0.17 |
| KTARGKAALERLKVFEG [RPL16A] | 2.95 ± 0.1 |
| KTFKNPKYESLKLEYYN [RPN5] | 1.09 ± 0.23 |
| KTFSRLDALTRHIKSKH [RPN4] | 1.06 ± 0.12 |
| KTKAMVPPINCIFNFLQ [SME1] | 1.97 ± 0.07 |
| KTKFQYKFLDQNSDAST [YIL149C/MLP2] | 2.94 ± 0.078 |
| KTKTSLLPTIKRTICKK [RPR2] | 2.49 ± 0.18 |
| KTKYILQRPTATDEESV [CSN12] | 2.95 ± 0.17 |
| KTLKRMIKESSTANPNI [POP1] | 2.28 ± 0.092 |
| KTQLGSTMTEPVKQSFI [GAL11] | 2.56 ± 0.053 |
| KTRKTYCKGKTCRKHTQ [RPL42A] | 2.75 ± 0.072 |
| KTRVGSVTAQVYKIALR [RPC82] | 1.5 ± 0.16 |
| KTSKRTKRWYKNAGLGF [RPS11A] | 3.17 ± 0.11 |
| KTSLSIKVENLNDTTEK [SMC2] | 3.09 ± 0.063 |
| KTVKELRQLLKERYTVE [RRI1] | 2.1 ± 0.066 |
| KTVPFQVNQLQRILEVL [SSN3] | 1.63 ± 0.041 |
| KVAPAPFGAKSTKSNKT [RPL8A] | 2.74 ± 0.071 |
| KVDGKVRTDTTYPAGFM [RPS4A] | 2.97 ± 0.073 |
| KVEIPLPNEAGRLEIFK [RPT4] | 2.52 ± 0.18 |

| Sequence | protein stability index |
| --- | --- |
| KVEKGVNIEPFNIDDEI [LIN1] | 3.45 ± 0.14 |
| KVIKVLGRTGSRGGVTQ [RPS28A] | 2.73 ± 0.085 |
| KVPDISSDGQLKKFRES [BRR2] | 3.39 ± 0.07 |
| KVSKNSTSFKNPRRLEI [YMR153W/NUP53] | 2.88 ± 0.057 |
| KVSYAVKKPQKSKTSTG [SNM1] | 2.66 ± 0.12 |
| KYLYLRAVGGEVGASAA [RPL12A] | 1.64 ± 0.13 |
| KYRKRQLVTREAQIKDW [FAS2] | 2.93 ± 0.24 |
| KYSDILLKKATKPEVAS [CDC53] | 2.47 ± 0.15 |
| LADILKANISLETLEHN [RPO21] | 3.11 ± 0.11 |
| LADKLENYEGKQDKTLQ [YIL149C/MLP2] | 2.92 ± 0.15 |
| LAKSKASLTAARTAANS [RPN6] | 2.83 ± 0.097 |
| LAKTKENYDAKIELEKK [YIL149C/MLP2] | 3.05 ± 0.061 |
| LANFVAKGFYHTPMVNF [SRB8] | 1.92 ± 0.082 |
| LAPTQLSAEYLVILKPD [SIN4] | 2.38 ± 0.12 |
| LAQLTSKLIPEVINKEI [RPS1A] | 2.92 ± 0.073 |
| LARGLRESTKALTRGEA [RPS12] | 2.94 ± 0.24 |
| LARQVKLLLLNTSAIQE [YIL149C/MLP2] | 1.56 ± 0.12 |
| LASFEKTTDHLFDAAFY [RPO31] | 2.96 ± 0.05 |
| LATGPNLTSEIEDLRAD [YOR098C/NUP1] | 3.12 ± 0.06 |
| LATPVQFELLSRRWRQR [BRR2] | 1.81 ± 0.072 |
| LATRRVLQEYRLTKQAF [RPO21] | 3.01 ± 0.065 |
| LCKSATTKMWPTNCPLR [BRR2] | 2.58 ± 0.081 |
| LDDNSTSLEKQINSIKK [YJL041W/NSP1] | 2.98 ± 0.038 |
| LDEIFSGCDSTKPSLRK [ECM29] | 2.65 ± 0.065 |
| LDELQWKSPEWIQVFGL [MED6] | 2.62 ± 0.071 |
| LDEMELHPYNSRGLFEK [YDL116W/NUP84] | 2.86 ± 0.076 |

| Sequence | protein stability index |
| --- | --- |
| LDENKWYKFNDDKVSVV [UBP6] | 3.06 ± 0.1 |
| LDEVDAALDLSHTQNIG [SMC2] | 3.02 ± 0.11 |
| LDGKFSLFHTAVSVANG [RPN2] | 2.45 ± 0.077 |
| LDKFTDGGLFTLFVRDQ [QCR2] | 3.19 ± 0.055 |
| LDKVINKELPINHTILG [RPN8] | 1.67 ± 0.13 |
| LDPINLPLDSQDDEYVK [PRP8] | 3.14 ± 0.093 |
| LDPISLILIPGETMWVP [RPN13] | 2.95 ± 0.093 |
| LDTYLPEDLNSLYIYYL [SIR2] | 2.54 ± 0.053 |
| LEANGRSLEKVNNSVSK [SSN2] | 3.18 ± 0.11 |
| LEASLNSITKDNIDYAP [YJL039C/NUP192] | 2.47 ± 0.039 |
| LEATWNFIEPGINQILG [CDC53] | 3.38 ± 0.1 |
| LEDIYTSAHEAIRADPA [RPL5] | 3.13 ± 0.072 |
| LEEKKKRPNNKTLEKLE [IRR1] | 3.39 ± 0.092 |
| LEESDVEDTLHVNKRKR [YOR098C/NUP1] | 3.12 ± 0.074 |
| LEEVSLKWIDTASKFGK [RPL3] | 1.8 ± 0.12 |
| LEFARITPMNDDQCMLI [SIN4] | 2.25 ± 0.051 |
| LEHVLLVPTASFFIASQ [FAS1] | 1.45 ± 0.064 |
| LEKFLQGRDTSKLPDPE [SRP72] | 2.38 ± 0.11 |
| LENATWTMRIEGRLLDN [SNF12] | 2.65 ± 0.1 |
| LENKADPLVSLMMVEKV [RPT6] | 2.35 ± 0.067 |
| LEPGCSVLLHHKTMSIV [RPT2] | 1.38 ± 0.087 |
| LEQKIHEVEEILNELQP [SMC1] | 2.99 ± 0.17 |
| LERLTLVFCKHITSVPI [GRR1] | 1.17 ± 0.14 |

same assay, conditions: ubr1∆

| Sequence | protein stability index |
| --- | --- |
| KPFGSAKSDETKQASSF [YLR335W/NUP2] | 1.06 ± 0.13 |
| KPGSIDAISQVINIAKA [FAS1] | 2.95 ± 0.033 |
